The data set concerns the target T1, PepTag peptide C1.
T1 chain: PLSRTLSVAAK

B1: recombinant DESC1 polypeptide expressed as a fusion protein with an amino-terminal His tag (pcDNA4/HisMax) (protein)
chain: MYRPDVVRARKRVCWEPWVIGLVIFISLIVLAVCIGLTVHYVRYNQKKTYNYYSTLSFTTDKLYAEFGREASNNFTEMSQRLESMVKNAFYKSPLREEFVKSQVIKFSQQKHGVLAHMLLICRFHSTEDPETVDKIVQLVLHEKLQDAVGPPKVDPHSVKIKKINKTETDSYLNHCCGTRRSKTLGQSLRIVGGTEVEEGEWPWQASLQWDGSHRCGATLINATWLVSAAHCFTTYKNPARWTASFGVTIKPSKMKRGLRRIIVHEKYKHPSHDYDISLAELSSPVPYTNAVHRVCLPDASYEFQPGDVMFVTGFGALKNDGYSQNHLRQAQVTLIDATTCNEPQAYNDAITPRMLCAGSLEGKTDACQGDSGGPLVSSDARDIWYLAGIVSWGDECAKPNKPGVYTRVTALRDWITSKTGI
On to B1, for which the “PepTag Protease Assay: proteolysis of dye-linked peptide, agarose gel electrophoresis” value is reported as “demonstrate proteolytic cleavage of C1 peptide by fractions containing DESC1 polypeptide eluted from the ProBond resin”.

The values are drawn from patent publication US7166427.
